Laboratory results from publication PMC9331606 (2022).

Key:
[1] = biological target: NanoLuciferase-tagged rat promyelocytic leukemia protein (rPML); assay: NanoBRET; details: HEK293T cells transfected 24 h; 4 h incubation with Halo ligand; detection time 5 s at 618 nm and 448 nm; parent: est. 2.8; read off a plot
[2] = biological target: NanoLuciferase-tagged human promyelocytic leukemia protein (hPML) (UniProt P29590); assay: NanoBRET; details: HEK293T cells transfected 24 h; 4 h incubation with Halo ligand; detection time 5 s at 618 nm and 448 nm; parent: est. 23; read off a plot
NanoLuciferase-tagged human promyelocytic leukemia protein (hPML), sequence (P29590 whole entry): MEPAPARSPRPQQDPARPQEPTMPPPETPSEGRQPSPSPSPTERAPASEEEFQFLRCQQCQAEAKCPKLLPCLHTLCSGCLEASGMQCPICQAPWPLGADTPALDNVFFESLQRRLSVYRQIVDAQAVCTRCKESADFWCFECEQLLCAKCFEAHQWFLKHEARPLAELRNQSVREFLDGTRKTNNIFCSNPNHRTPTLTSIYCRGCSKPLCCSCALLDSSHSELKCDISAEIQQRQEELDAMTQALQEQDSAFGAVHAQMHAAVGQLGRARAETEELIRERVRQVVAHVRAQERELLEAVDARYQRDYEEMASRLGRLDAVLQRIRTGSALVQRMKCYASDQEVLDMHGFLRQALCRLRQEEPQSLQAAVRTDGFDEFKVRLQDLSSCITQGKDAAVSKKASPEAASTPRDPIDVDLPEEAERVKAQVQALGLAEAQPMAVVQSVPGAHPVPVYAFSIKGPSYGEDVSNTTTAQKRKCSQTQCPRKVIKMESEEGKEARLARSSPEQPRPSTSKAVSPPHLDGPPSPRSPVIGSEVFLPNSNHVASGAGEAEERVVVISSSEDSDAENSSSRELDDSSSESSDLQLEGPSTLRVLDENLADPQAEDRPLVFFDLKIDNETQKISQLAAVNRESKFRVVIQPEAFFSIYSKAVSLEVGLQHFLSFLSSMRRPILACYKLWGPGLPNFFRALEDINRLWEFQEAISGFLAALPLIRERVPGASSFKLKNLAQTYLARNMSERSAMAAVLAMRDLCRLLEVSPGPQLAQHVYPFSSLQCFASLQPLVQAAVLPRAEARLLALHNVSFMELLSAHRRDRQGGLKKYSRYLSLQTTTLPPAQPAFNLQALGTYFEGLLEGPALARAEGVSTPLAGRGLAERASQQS

Substance | response [1] | response [2]
Halo-tagged human cytomegalovirus immediate early 1 protein (hIE1) (from UniProt P13202) L174P | 7 mBU | –
Halo-tagged human cytomegalovirus immediate early 1 protein (hIE1) (from UniProt P13202) cc172-176 | – | 24 mBU
Halo-tagged human cytomegalovirus immediate early 1 protein (hIE1) (from UniProt P13202) hIE1_rH1 | 5.5 mBU | 1.6 mBU
Halo-tagged human cytomegalovirus immediate early 1 protein (hIE1) (from UniProt P13202) hIE1_rH1/2 | 6.5 mBU | 3.7 mBU
Halo-tagged human cytomegalovirus immediate early 1 protein (hIE1) (from UniProt P13202) hIE1_rH4 | 4 mBU | 4.1 mBU
Halo-tagged human cytomegalovirus immediate early 1 protein (hIE1) (from UniProt P13202) hIE1_rH8 | 6.5 mBU | 2.2 mBU
Halo-tagged human cytomegalovirus immediate early 1 protein (hIE1) (from UniProt P13202) hIE1_rH10/11 | 6.5 mBU | 2.6 mBU
